First the molecules themselves.
T1: MERS-CoV S protein (London1/2012) expressed on ExpiCHO cells (MERS-CoV, UniProt K9N5Q8 18-1353)
T1 sequence: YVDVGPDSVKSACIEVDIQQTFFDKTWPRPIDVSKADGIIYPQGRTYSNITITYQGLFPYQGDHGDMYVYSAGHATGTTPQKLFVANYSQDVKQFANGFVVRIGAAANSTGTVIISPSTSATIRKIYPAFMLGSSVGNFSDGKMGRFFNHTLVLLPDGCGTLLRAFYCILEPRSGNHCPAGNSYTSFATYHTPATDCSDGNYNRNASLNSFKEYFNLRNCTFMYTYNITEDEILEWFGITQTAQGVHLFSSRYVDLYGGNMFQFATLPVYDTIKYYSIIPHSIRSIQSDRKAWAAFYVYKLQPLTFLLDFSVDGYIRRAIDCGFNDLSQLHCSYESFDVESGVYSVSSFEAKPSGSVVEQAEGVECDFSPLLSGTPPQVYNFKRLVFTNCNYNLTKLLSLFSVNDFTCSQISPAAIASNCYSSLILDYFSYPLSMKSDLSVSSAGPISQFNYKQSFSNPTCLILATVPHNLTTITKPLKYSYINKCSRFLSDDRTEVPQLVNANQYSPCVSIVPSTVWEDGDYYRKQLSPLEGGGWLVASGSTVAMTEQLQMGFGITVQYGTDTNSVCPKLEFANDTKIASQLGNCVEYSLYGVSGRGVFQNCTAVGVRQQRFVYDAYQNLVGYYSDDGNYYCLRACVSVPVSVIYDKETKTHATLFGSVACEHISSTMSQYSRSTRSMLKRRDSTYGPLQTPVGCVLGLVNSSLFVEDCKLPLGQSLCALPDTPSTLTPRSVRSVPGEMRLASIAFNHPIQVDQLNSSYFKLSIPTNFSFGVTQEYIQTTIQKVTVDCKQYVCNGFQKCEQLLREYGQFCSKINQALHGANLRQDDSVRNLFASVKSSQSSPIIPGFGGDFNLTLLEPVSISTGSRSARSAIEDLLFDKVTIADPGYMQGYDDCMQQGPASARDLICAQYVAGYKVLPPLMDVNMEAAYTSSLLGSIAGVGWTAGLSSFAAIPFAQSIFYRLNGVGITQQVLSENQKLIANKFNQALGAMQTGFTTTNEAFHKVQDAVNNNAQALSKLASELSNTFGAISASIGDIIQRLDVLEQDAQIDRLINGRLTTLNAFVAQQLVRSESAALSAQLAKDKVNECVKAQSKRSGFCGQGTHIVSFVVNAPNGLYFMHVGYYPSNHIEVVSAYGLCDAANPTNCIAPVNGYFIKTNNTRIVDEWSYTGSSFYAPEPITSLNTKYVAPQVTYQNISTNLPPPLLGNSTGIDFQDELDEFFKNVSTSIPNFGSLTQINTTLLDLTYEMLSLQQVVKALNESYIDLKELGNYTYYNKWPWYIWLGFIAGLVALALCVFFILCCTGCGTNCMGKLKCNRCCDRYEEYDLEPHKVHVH

B1: nCoV-10 mAb (antibody, V domains shown)
VH: QVQLVESGGGVVQPGRSLRLSCAASGFTFSNYGMHWVRQAPGKGLEWLAVISSDGRIKFYADSVKGRFTMSRDSSKNTLYLQMNSLRAEDTAVYYCAKDRFQFARSWYGDYFDYWGQGTQVTVSS
VL: AVAMTQSPLSLPVTLGQPASISCRSNQSLVYSDGNIYLNWFQQRPGQSPMRLIYRVSNRDSGVPDRFSGSGSGTDFTLKISRVEAEDVGIYYCMQGTHWPPTFGGGTKVEIK
B2: nCoV-1 mAb (antibody, V domains shown)
VH: QAQLVESGGALVQPGRSLRLSCAASGFTFRNYAMHWVRQAPATGLQWLAVITSDGRNKFYADSVKGRFTISREDSKNTLYLQMDSLRGEDTAVYYCVTQRDNSRDYFPHYFHDMDVWGQGTTVAVSS
VL: DVVLTQSPLSLPVTLGQPASISCRSSQSLVYSDGDTYLNWFQQRPGQSPRRLIYQVSNRDSGVPDRFSGSGSGTDFTLKISRVEAEDVGVYYCMQGSHWPPTFGQGTKVEIK
B3: nCoV-20 mAb (antibody, V domains shown)
VH: QVTLRESGPALVKPTQTLTLTCTFSGFSLTTTEMCVGWIRQPPGKALEWLALIDWDDDKYYSTSLRTRLTISKDTSKNQVVLTMTNMDPVDTATYYCARMFGRKRLAPTGFDPWGQGTLVTVSS
VL: DIVMTQSPLSLPVTPGEPASISCRSSQSLLHSNGKNYLDWYLQKPGQSPQLLICLGSYRASGVPDRFSGSGSGTDFTLKISRVEAEDVGVYYCMQALQTPWTFGQGTKVEIK
B4: nCoV-17 mAb (antibody, V domains shown)
VH: QVQLVESGGGVVQPGRSLRLSCAASGFTFSSYAIHWVRQAPGKGLEWLAVISFDGRHKYYADSVKGRFTISRDNSKNTVYLQMNSLRVEDTAVYSCARDIRHLIVVVSDMDVWGQGTTVTVSS
VL: B2 VL with L4M, Y31N, Y37S, Q55K, F67I, S97T, V109L
B5: nCoV-19 mAb (antibody, V domains shown)
VH: QVKLVESGGGVVQPGRSLRLSCAASGFTFSSNAMHWVRQTPGKGLEWVALISYDERNKYYAESVKGRFTISRDNSKNTLYLQMNSLRHEDTAVYYCARDLQMRVVVVSNFDYWGQGTLVTVSS
VL: B2 VL with L4M, D35N, Q55E, R59W, G96A, S97T, V109L
B6: nCoV-18 mAb (antibody, V domains shown)
VH: QVQLVQSGAEVRQPGTSVKVSCKASGYTFMNNDITWVRQAPGQVLQWMGWIRPSNGNTNYAQKFQGRVTLTTDTSTNTAHMELRSLKSDDTAVYYCARQSHSTRGGWHFSPWGQGTLVTVSS
VL: DIQMTQSPSSLSASVGDRVTITCRPSQPISYFLNWYQQTPGKAPKLLIYAASSLQSGVPSRFSGSGSGTDFTLTISSLQPEDSATYYCQQSYSVPYTFGQGTKLEIK

These results are taken from patent publication US20250263466A1 (VIR BIOTECHNOLOGY, published 2025).

Changes are numbered by the printed parent chain.

One assay has as its target SARS-CoV Spike S1 Subunit Protein (strain WH20) (SARS-CoV, UniProt P59594 14-667). The experiment in a line: Octet (BLI): inhibition of SARS-CoV S1 binding to immobilized hACE2. A general note: Biolayer interferometry detects binding as a change in optical thickness at a sensor tip.
By IC50 is commonly meant the concentration that inhibits the measured activity by half. Low readings indicate inhibition by little substance, high ones a need for much substance. In turn, B1 yielded an IC50 of 2.69 µg/mL.
Still for that read-out and setting: the value for B2 was 1.13 µg/mL.

In a further assay the target is SARS-CoV S protein (Urbani strain) expressed on ExpiCHO cells (SARS-CoV, UniProt P59594 14-1255). The experiment in a line: flow cytometry on ExpiCHO cells transfected with SARS-CoV S. (Flow cytometry measures light scatter and fluorescence of single cells or particles in a stream.)
Turning to B3, the binding result is listed as “binds”.
The same measure, in the same setting: the value for B4 was “binds”.
The same measure, in the same setting: to B5 belongs “binds”; to B6, “binds”.

The next assay deals with T1, MERS-CoV S protein (London1/2012) …. Briefly: flow cytometry on ExpiCHO cells transfected with MERS-CoV S.
In the case of B1, the binding result was “no binding (tested: 10 µg/ml)”.
Same read-out and setting: the value for B3 was “no binding (tested: 10 µg/ml)”; that for B4 was “no binding (tested: 10 µg/ml)”.
In the case of B5, the binding result was “no binding (tested: 10 µg/ml)”.
Take B2: the binding result is “no binding (tested: 10 µg/ml)”.
The same measure, in the same setting: the value for B6 was “no binding (tested: 10 µg/ml)”.
